Where no end group is shown, it is not given here. The star is where a group is joined. Biotin = O=C1N[C@H]2[C@H](CS[C@H]2CCCCC(=O)*)N1
Biological target: antiserum As #128 (sheep polyclonal, raised to the alpha subunit of human inhibin, boosted with human recombinant 30-kDa inhibin)
Assay: RIA, competition with iodinated inhibin

**Q.** Biotin-SGSGLHIPPNLSLPVPGA [biotinylated peptide #19 (Set 1) of the human (alpha)C subunit] was tested. Which ED50 did it give?
**A.** Its ED50 is < 10 nM.

**Q.** Biotin-SGSGPNLSLPVPGAPPTP [biotinylated peptide #20 (Set 1) of the human (alpha)C subunit] was tested. Which ED50 did it give?
**A.** The ED50 was 20 nM.

**Q.** How did the ED50 turn out when Biotin-SGSGLPVPGAPPTPAQPY [biotinylated peptide #21 (Set 1) of the human (alpha)C subunit] was run?
**A.** The ED50 was 156 nM.

**Q.** With Biotin-SGSGGAPPTPAQPYSLLP [biotinylated peptide #22 (Set 1) of the human (alpha)C subunit] as the molecule, how does the ED50 read?
**A.** The ED50 was 156 nM.

**Q.** How did the ED50 turn out when Biotin-SGSGTPAQPYSLLPGAQP [biotinylated peptide #23 (Set 1) of the human (alpha)C subunit] was run?
**A.** Its ED50 is 500 nM.

**Q.** How did the ED50 turn out when Biotin-SGSGPYSLLPGAQPCCAA (cysteine pairing not given here) [biotinylated peptide #24 (Set 1) of the human (alpha)C subunit] was run?
**A.** Its ED50 is 900 nM.

**Q.** Biotin-SGSGLPGAQPCCAALPGT (cysteine pairing not given here) [biotinylated peptide #25 (Set 1) of the human (alpha)C subunit] was tested. Which ED50 did it give?
**A.** Its ED50 is 2000 nM.

**Q.** With Biotin-SGSGQPCCAALPGTMRPL (cysteine pairing not given here) [biotinylated peptide #26 (Set 1) of the human (alpha)C subunit] as the molecule, how does the ED50 read?
**A.** Its ED50 is 625 nM.

**Q.** Which ED50 does the source give for Biotin-SGSGAALPGTMRPLHVRT [biotinylated peptide #27 (Set 1) of the human (alpha)C subunit] here?
**A.** Its ED50 is 2000 nM.

Biological target: antiserum As #41 (sheep polyclonal, raised to the alpha subunit of human inhibin)
Assay: RIA, competition with iodinated inhibin

**Q.** For Biotin-SGSGLHIPPNLSLPVPGA [biotinylated peptide #19 (Set 1) of the human (alpha)C subunit], which ED50 is on record?
**A.** The ED50 was 2100 nM.

**Q.** For Biotin-SGSGPNLSLPVPGAPPTP [biotinylated peptide #20 (Set 1) of the human (alpha)C subunit], which ED50 is on record?
**A.** Its ED50 is 3600 nM.

**Q.** How did the ED50 turn out when Biotin-SGSGLPVPGAPPTPAQPY [biotinylated peptide #21 (Set 1) of the human (alpha)C subunit] was run?
**A.** The ED50 was 1000 nM.

**Q.** With Biotin-SGSGGAPPTPAQPYSLLP [biotinylated peptide #22 (Set 1) of the human (alpha)C subunit] as the molecule, how does the ED50 read?
**A.** Its ED50 is 5000 nM.

**Q.** How did the ED50 turn out when Biotin-SGSGTPAQPYSLLPGAQP [biotinylated peptide #23 (Set 1) of the human (alpha)C subunit] was run?
**A.** Its ED50 is 6200 nM.

**Q.** How did the ED50 turn out when Biotin-SGSGPYSLLPGAQPCCAA (cysteine pairing not given here) [biotinylated peptide #24 (Set 1) of the human (alpha)C subunit] was run?
**A.** The ED50 was 6200 nM.

**Q.** For Biotin-SGSGLPGAQPCCAALPGT (cysteine pairing not given here) [biotinylated peptide #25 (Set 1) of the human (alpha)C subunit], which ED50 is on record?
**A.** Its ED50 is 5000 nM.

**Q.** Which ED50 does the source give for Biotin-SGSGQPCCAALPGTMRPL (cysteine pairing not given here) [biotinylated peptide #26 (Set 1) of the human (alpha)C subunit] here?
**A.** Its ED50 is 1000 nM.

**Q.** How did the ED50 turn out when Biotin-SGSGAALPGTMRPLHVRT [biotinylated peptide #27 (Set 1) of the human (alpha)C subunit] was run?
**A.** Its ED50 is 5000 nM.

Biological target: rabbit antiserum #1989
Assay: RIA, competition with iodinated inhibin

**Q.** Which ED50 does the source give for Biotin-SGSGAAHANCHRVALNIS [biotinylated peptide #9 (Set 1) of the human (alpha)C subunit] here?
**A.** Its ED50 is > 2500 nM.

**Q.** With Biotin-SGSGNCHRVALNISFQEL [biotinylated peptide #10 (Set 1) of the human (alpha)C subunit] as the molecule, how does the ED50 read?
**A.** The ED50 was > 2500 nM.

**Q.** With Biotin-SGSGVALNISFQELGWER [biotinylated peptide #11 (Set 1) of the human (alpha)C subunit] as the molecule, how does the ED50 read?
**A.** The ED50 was > 2500 nM.

**Q.** Biotin-SGSGISFQELGWERWIVY [biotinylated peptide #12 (Set 1) of the human (alpha)C subunit] was tested. Which ED50 did it give?
**A.** The ED50 was > 2500 nM.

**Q.** Which ED50 does the source give for Biotin-SGSGELGWERWIVYPPSF [biotinylated peptide #13 (Set 1) of the human (alpha)C subunit] here?
**A.** Its ED50 is > 2500 nM.

**Q.** Which ED50 does the source give for Biotin-SGSGERWIVYPPSFIFHY [biotinylated peptide #14 (Set 1) of the human (alpha)C subunit] here?
**A.** The ED50 was > 2500 nM.

**Q.** For Biotin-SGSGVYPPSFIFHYCHGG [biotinylated peptide #15 (Set 1) of the human (alpha)C subunit], which ED50 is on record?
**A.** Its ED50 is > 2500 nM.

**Q.** How did the ED50 turn out when Biotin-SGSGSFIFHYCHGGCGLH (cysteine pairing not given here) [biotinylated peptide #16 (Set 1) of the human (alpha)C subunit] was run?
**A.** The ED50 was > 2500 nM.

**Q.** Biotin-SGSGLHIPPNLSLPVPGA [biotinylated peptide #19 (Set 1) of the human (alpha)C subunit] was tested. Which ED50 did it give?
**A.** Its ED50 is > 2500 nM.

**Q.** For Biotin-SGSGPNLSLPVPGAPPTP [biotinylated peptide #20 (Set 1) of the human (alpha)C subunit], which ED50 is on record?
**A.** The ED50 was > 2500 nM.

**Q.** For Biotin-SGSGLPVPGAPPTPAQPY [biotinylated peptide #21 (Set 1) of the human (alpha)C subunit], which ED50 is on record?
**A.** Its ED50 is > 2500 nM.

**Q.** With Biotin-SGSGGAPPTPAQPYSLLP [biotinylated peptide #22 (Set 1) of the human (alpha)C subunit] as the molecule, how does the ED50 read?
**A.** Its ED50 is > 2500 nM.

**Q.** Which ED50 does the source give for Biotin-SGSGTPAQPYSLLPGAQP [biotinylated peptide #23 (Set 1) of the human (alpha)C subunit] here?
**A.** The ED50 was > 2500 nM.

**Q.** With Biotin-SGSGPYSLLPGAQPCCAA (cysteine pairing not given here) [biotinylated peptide #24 (Set 1) of the human (alpha)C subunit] as the molecule, how does the ED50 read?
**A.** Its ED50 is > 2500 nM.

**Q.** Which ED50 does the source give for Biotin-SGSGLPGAQPCCAALPGT (cysteine pairing not given here) [biotinylated peptide #25 (Set 1) of the human (alpha)C subunit] here?
**A.** The ED50 was > 2500 nM.

**Q.** How did the ED50 turn out when Biotin-SGSGQPCCAALPGTMRPL (cysteine pairing not given here) [biotinylated peptide #26 (Set 1) of the human (alpha)C subunit] was run?
**A.** The ED50 was > 2500 nM.

**Q.** Biotin-SGSGAALPGTMRPLHVRT [biotinylated peptide #27 (Set 1) of the human (alpha)C subunit] was tested. Which ED50 did it give?
**A.** Its ED50 is > 2500 nM.

Biological target: human recombinant 30 kDa inhibin A (human) (UniProt P05111)
UniProt P05111, sequence (P05111 233-366, chain 1 of 2): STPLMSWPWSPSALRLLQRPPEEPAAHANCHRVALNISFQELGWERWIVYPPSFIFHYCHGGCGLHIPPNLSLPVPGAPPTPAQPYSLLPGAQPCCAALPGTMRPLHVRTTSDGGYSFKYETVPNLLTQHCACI
UniProt P05111, sequence (P08476 311-426, chain 2 of 2, further chain): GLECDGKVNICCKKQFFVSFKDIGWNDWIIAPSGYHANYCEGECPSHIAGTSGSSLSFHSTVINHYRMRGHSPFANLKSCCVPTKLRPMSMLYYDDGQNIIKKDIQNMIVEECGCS
Assay: RIA, iodinated human inhibin A tracer vs human recombinant inhibin A

**Q.** “R1 monoclonal antibody (Groome), inhibin (alpha)C subunit” was tested. Which ED25 (affinity for inhibin) did it give?
**A.** The ED25 (affinity for inhibin) was 1.6 nM.
